Results: patent CN101605906A (MEDAREX INC, dated 2009)

Biological target: T1, 人类CD70 (表达于细胞表面) (human, UniProt P32970 1-193)
T1 sequence: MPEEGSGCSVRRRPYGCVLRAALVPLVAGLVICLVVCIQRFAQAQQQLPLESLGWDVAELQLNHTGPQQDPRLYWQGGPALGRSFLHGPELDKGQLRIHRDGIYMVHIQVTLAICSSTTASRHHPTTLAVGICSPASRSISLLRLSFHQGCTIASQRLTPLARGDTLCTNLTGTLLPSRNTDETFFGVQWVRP
Assay: cell-based or functional assay

3 H-胸腺嘧啶核苷掺入 (Hum-Zap内化测定, 786-O细胞), EC50: 900 pM
B1: 抗-CD70人类单克隆抗体2H5 (antibody, V domains shown)
VH: QVQLVESGGGVVQPGRSLRLSCAASGFTFSSYIMHWVRQAPGKGLEWVAVISYDGRNKYYADSVKGRFTISRDNSKNTLYLQMNSLRAEDTAVYYCARDTDGYDFDYWGQGTLVTVSS
VL: EIVLTQSPATLSLSPGERATLSCRASQSVSSYLAWYQQKPGQAPRLLIYDASNRATGIPARFSGSGSGTDFTLTISSLEPEDFAVYYCQQRTNWPLTFGGGTKVEIK
